# Data as given in publication PMC5610937 (Journal of molecular biology, 2017).
# B1: XBR1-402 in chimeric rabbit/human IgG1 format (antibody, V domains shown)
# VH: QEQQKESGGGLFKPTDTLTLTCTASGFDISSYYMSWVRQAPGNGLEWIGAIGISGNAYYASWAKSRSTITRNTNLNTVTLKMTSLTAADTATYFCARDHPTYGMDLWGPGTLVTVSS
# VL: SYELTQLPSVSVSLGQTARITCEGNNIGSKAVHWYQQKPGLAPGLLIYDDDERPSGVPDRFSGSNSGDTATLTISGAQAGDEADYYCQVWDSSAYVFGGGTQLTVT
# Target: human ROR2 on the Retrogenix HEK293 cell microarray (Homo sapiens (Human)., UniProt Q01974)
# Assay: Retrogenix cell microarray
binder,measurement,value
B1,binding result,no binding (tested: 2 μg/mL)
